Assay results reported in publication PMC12208494, “The zinc metalloprotein MigC impacts cell wall biogenesis through interactions with an essential Mur ligase in Acinetobacter baumannii” (PLOS Pathogens, 2025).

Legend:
[1] = target: MurD (A1S_0245), recombinant, purified (Acinetobacter baumannii); assay: enzyme inhibition curve (HPLC assay of MurD activity); 40 nM MurD; Zn-loaded MigC (1.0 mol equivalent ZnSO4) 0.025-75 µM final, with GTP; enzyme mixture pre-incubated 10 min at 37 °C; 200 µM UMA, 1 mM D-glutamate, 1 mM ATP, 0.1 mg/mL BSA; 25 mM HEPES, 150 mM KCl, 2 mM MgCl2, 2 mM TCEP, pH 7.4, 37 °C; Ki fitted with the maximal inhibition fixed from a global fit
Chain of MurD (A1S_0245), recombinant, purified (Acinetobacter baumannii) (A3M1C6 whole entry): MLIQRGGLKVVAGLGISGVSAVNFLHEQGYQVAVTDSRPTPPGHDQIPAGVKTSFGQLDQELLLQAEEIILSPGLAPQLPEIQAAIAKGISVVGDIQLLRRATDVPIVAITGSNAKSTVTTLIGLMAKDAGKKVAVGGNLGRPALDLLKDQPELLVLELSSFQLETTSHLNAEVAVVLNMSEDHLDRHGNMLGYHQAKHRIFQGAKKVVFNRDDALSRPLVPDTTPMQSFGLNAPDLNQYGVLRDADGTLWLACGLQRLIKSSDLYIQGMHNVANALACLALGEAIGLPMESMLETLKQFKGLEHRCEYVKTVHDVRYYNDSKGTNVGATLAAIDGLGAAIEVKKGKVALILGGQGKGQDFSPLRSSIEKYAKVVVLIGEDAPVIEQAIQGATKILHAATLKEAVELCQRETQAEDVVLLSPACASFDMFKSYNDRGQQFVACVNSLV

[2] = target: MurD (A1S_0245), recombinant, purified (Acinetobacter baumannii)
[3] = target: MurD (A1S_0245), recombinant, purified (Acinetobacter baumannii); assay: enzyme inhibition curve (HPLC assay of MurD activity); as a3 but apo MigC (no Zn) with GTP
[4] = target: MurD (A1S_0245), recombinant, purified (Acinetobacter baumannii); assay: enzyme inhibition curve (HPLC assay of MurD activity); as a3 but apo MigC (no Zn) without GTP

Substance	Ki [1] [µM]	maximal inhibition of MurD activity at saturating Zn-MigC (inhibition curves, 0.025-75 µM MigC, HPLC) [2] [%]	Ki [3] [µM]	Ki [4] [µM]
E99A MigC, recombinant, purified (enzyme)	21	–	–	–
MigC (A1S_0934), recombinant, purified (enzyme)	32	75	43	20
